Biological target: recombinant LanCL1 (Lanthionine synthetase C-like protein 1) (UniProt O43813)
Experiment: competition: displacement of photoprobe SEQ ID NO:22 from rLANCL1, in-gel fluorescence

Sequence of recombinant LanCL1 (Lanthionine synthetase C-like protein 1) (O43813 whole entry): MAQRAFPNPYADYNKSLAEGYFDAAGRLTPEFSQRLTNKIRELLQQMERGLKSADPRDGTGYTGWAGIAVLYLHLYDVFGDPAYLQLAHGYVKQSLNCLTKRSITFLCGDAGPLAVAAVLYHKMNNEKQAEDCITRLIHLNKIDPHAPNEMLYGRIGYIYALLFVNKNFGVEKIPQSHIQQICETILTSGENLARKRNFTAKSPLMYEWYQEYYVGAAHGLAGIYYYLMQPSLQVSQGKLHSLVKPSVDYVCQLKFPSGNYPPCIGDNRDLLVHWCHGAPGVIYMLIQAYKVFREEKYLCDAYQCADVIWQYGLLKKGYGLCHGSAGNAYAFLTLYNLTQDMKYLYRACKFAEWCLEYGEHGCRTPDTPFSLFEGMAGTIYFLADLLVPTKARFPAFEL

Binder: RALNSS [peptide of SEQ ID NO:39, RALNSS]
- ED50 displacement value: > 200 µM
